Test results reported in PMC7615752, “The histone chaperone SPT2 regulates chromatin structure and function in Metazoa” (Nature structural & molecular biology, 2023).

Molecular target: T1, recombinant histone H3.1–H4 tetramer (NEB, M2509S) (UniProt P68431 1-136; P62805 1-103)
T1 construct: histone H3.1 of the recombinant H3.1–H4 tetramer; histone H4 of the recombinant H3.1–H4 tetramer; As I recall the NEB product is the human tetramer; also called H3–H4; histone H3–H4; source: bought: NEB, M2509S (recombinant); copies: 2 + 2
Test: pull-down; 20 pmol recombinant H3.1–H4 tetramer covalently coupled to NHS-activated magnetic beads; 5 pmol full-length SPT2 in 20 mM Tris–HCl pH 8.0, 500 mM NaCl, 0.1% Triton X-100, 0.1 mM TCEP, 1.5 h at 4 °C; washes with 700 or 800 mM NaCl
Details: both partners purified

binding result: binds
B1: HsSPT2, full-length (human SPT2), His6-tagged (natural protein)
chain: MDFREILMIASKGQGVNNVPKRYSLAVGPPKKDPKVKGVQSAAVQAFLKRKEEELRRKALEEKRRKEELVKKRIELKHDKKARAMAKRTKDNFHGYNGIPIEEKSKKRQATESHTSQGTDREYEMEEENEFLEYNHAESEQEYEEEQEPPKVESKPKVPLKSAPPPMNFTDLLRLAEKKQFEPVEIKVVKKSEERPMTAEELREREFLERKHRRKKLETDGKLPPTVSKKAPSQKESVGTKLSKGSGDRHPSSKGMPLPHAEKKSRPSMANEKHLALSSSKSMPGERIKAGSGNSSQPSLREGHDKPVFNGAGKPHSSTSSPSVPKTSASRTQKSAVEHKAKKSLSHPSHSRPGPMVTPHNKAKSPGVRQPGSSSSSAPGQPSTGVARPTVSSGPVPRRQNGSSSSGPERSISGSKKPTNDSNPSRRTVSGTCGPGQPASSSGGPGRPISGSVSSARPLGSSRGPGRPVSSPHELRRPVSGLGPPGRSVSGPGRSISGSIPAGRTVSNSVPGRPVSSLGPGQTVSSSGPTIKPKCTVVSETISSKNIISRSSNGQMNGMKPPLSGYRAAQGPQRLPFPTGYKRQREYEEEDDDDDEYDSEMEDFIEDEGEPQEEISKHIREIFGYDRKKYKDESDYALRYMESSWKEQQKEEAKSLRLGMQEDLEEMRREEEEMQRRRAKKLKRR
notes: human SPT2 (gene SPTY2D1), full length; source: E. coli Rosetta 2(DE3) pLysS BL21, purified (NiNTA, Flag M2 beads, Ulp1 cleavage); not shown: 2xFlag-SUMO, N-terminal, cleaved; His6, C-terminal, kept
